These results are taken from patent US20240101687A1 (ABL BIO, published 2024).

Residue numbers refer to the chain shown, from its start. In names and notes the source's numbering stands. Several values for one entry are separate records, joined by “and”; a condition that tells them apart may be missing. Equal values may be shown once.

In test [1] the target is T1, human alpha-synuclein aggregates (fibrils) (human, UniProt P37840 1-140). The test can be described thus: SPR (BIAcore), fibrils; table of results. Background: Surface plasmon resonance follows binding to a sensor surface in real time, without labels.
Protocol: (§1) The running buffer, analyte dilution, and the sample dilution buffer were HBS-EP. […] For the capture, the monomer was for RU of 800 (theoretical), and a fibril was for RU of 100 (theoretical). The capture phase was performed at contact time of 60 seconds, a flow rate of 30 μl/min, and a stabilization period of 180 seconds. The association phase was performed at the association time of 120 seconds and the flow rate was 30 μl/min. The dissociation phase was performed at the dissociation time of 360 seconds and the flow rate of 30 l/min. The regeneration phase was performed twice time at the regeneration time of 240 seconds (primary) and 60 seconds (secondary) and a flow rate of 30 μl/min. The fitting was carried out suing 1:1 binding model, and the evaluation software was BIACore T200 Evaluation software (GE healthcare).
Test [2] deals with T1, human alpha-synuclein aggregates …. The test can be described thus: sandwich ELISA, antibody coated at 1 ug/ml, alpha-synuclein fibril aggregates titrated. Background: ELISA stands for enzyme-linked immunosorbent assay.
Protocol: ELISA analysis was performed to quantitatively analyze the binding affinity of the antibody of the present invention to the antigen. […] After washing with PBS, streptavidin conjugated with HRP and secondary antibody conjugate with biotin was treated and then reacted with TMB as a substrate.
The target is the same in test [3]. The test can be described thus: Octet (BLI), fibrils; table of results. (BLI is a label-free optical method that tracks binding on a fibre tip over time.)
Protocol: The target concentrations were 20 μg/ml for the monomer and 0.4 μg/ml for the fibril. The kinetics concentration was diluted sequentially two times from 50 nM for monomers and from 100 nM for fibrils, to give 7 points in total, respectively. Association/dissociation time was 5 min/20 min for monomer and 5 min/25 min for fibril. Biosensor was ARG2 and fitting was performed using 1:1 fitting model.
For test [4] the target is unchanged. The test can be described thus: SPR (BIAcore), antibody captured on Protein A chip, alpha-synuclein fibril (sample aSyn180330) as analyte, 1:1 binding fit, 25 C.
Protocol: as §1
The target is the same in test [5]. The test can be described thus: sandwich ELISA, antibody coated in a dilution series, synuclein fibril aggregates at 2000 ng/ml; C of the 4-P fit, which paragraph 260 calls EC50.
Protocol: Specifically, each antibody was diluted at 1/10 ratio of concentrations 0.04 to 400 nM and was coated on a 96-well plate, and then each well was treated with synuclein fibril aggregates were treated at 2000 ng/ml. After washing with 1×PBS, streptavidin conjugated with HRP and secondary antibody conjugate with biotin was treated and then reacted with TMB as a substrate. The absorbance was measured.
For test [6] the target is unchanged. The test is described as follows: BIAcore as in Example 4-3, α-syn aggregates.
Protocol: as §1
The target of another test is T2, human gamma-synuclein (human, UniProt O76070 1-127, limits assumed).
T2 construct: bought
T2 sequence (O76070 whole entry): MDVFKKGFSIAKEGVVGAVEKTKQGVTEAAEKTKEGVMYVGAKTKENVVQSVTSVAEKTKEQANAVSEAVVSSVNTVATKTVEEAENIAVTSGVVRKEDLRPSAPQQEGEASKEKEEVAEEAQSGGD
The test can be described thus: ELISA, human gamma-synuclein coated at 100 ng/ml.

The target of another test is T3, Tau protein aggregates (UniProt P10636-8 1-441, limits assumed).
T3 construct: aggregates prepared by Prof; Seung-jae Lee; also called tau-derived aggregates
T3 sequence (P10636 other isoform, or with tags, fused parts or gaps limits assumed): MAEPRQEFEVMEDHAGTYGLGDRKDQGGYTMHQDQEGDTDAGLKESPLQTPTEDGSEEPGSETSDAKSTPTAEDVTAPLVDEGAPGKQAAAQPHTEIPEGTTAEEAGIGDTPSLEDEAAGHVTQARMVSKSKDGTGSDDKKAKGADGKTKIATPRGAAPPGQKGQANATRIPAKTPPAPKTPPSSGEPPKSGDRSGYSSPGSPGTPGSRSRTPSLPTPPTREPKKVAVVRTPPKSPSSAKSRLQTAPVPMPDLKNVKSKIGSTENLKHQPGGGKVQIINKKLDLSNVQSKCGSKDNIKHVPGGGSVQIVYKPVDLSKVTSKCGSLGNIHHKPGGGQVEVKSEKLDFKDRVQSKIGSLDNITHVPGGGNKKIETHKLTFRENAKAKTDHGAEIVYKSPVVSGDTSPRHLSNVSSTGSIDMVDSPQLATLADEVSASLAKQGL
The test is described as follows: dot blot.

Test [7] has as its target T1, human alpha-synuclein aggregates …. The test is described as follows: SPR (BIAcore), antibody captured on Protein A chip, alpha-Syn fibril as analyte, 1:1 binding fit, 25 C.
Test [8] addresses human alpha-synuclein monomer (human, UniProt P37840 1-140). The test is described as follows: SPR (BIAcore), antibody captured on Protein A chip, alpha-Syn monomer as analyte, 1:1 binding fit to a flat sensorgram, 25 C.
The target of test [9] is T4, amyloid beta1-42 aggregates (UniProt P05067 672-713).
T4 construct: domain: amyloid beta1-42; aggregates prepared by Prof; Seung-jae Lee; also called amyloid beta1-42-derived aggregates
The test can be described thus: dot blot, monomer and fibril of each protein spotted in rising amounts, antibody as probe.
Protocol: (§2) The specific binding ability of the antibodies to the alpha-synuclein aggregate was analyzed by reacting with a blot.

In another test the target is T5, Aβ42 (Monomer) (human, UniProt P05067).
T5 construct: recombinant, monomer (not aggregated); m20 is the aggregated form; also called amyloid beta1-42 monomer
Described as above.

The target in the next test is T6, human beta-synuclein (human, UniProt Q16143 1-134, limits assumed).
T6 construct: bought
T6 sequence (Q16143 whole entry): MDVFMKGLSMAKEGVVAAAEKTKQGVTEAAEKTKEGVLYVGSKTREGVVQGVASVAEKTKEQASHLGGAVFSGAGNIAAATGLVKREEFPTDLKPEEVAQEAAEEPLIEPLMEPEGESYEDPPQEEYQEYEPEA
The test is described as follows: ELISA, human beta-synuclein coated at 100 ng/ml.

Test [10] deals with T7, human IGF1R extracellular domain, His-tagged (human, UniProt P08069 31-932).
T7 construct: Bought (R&D Systems 391-GR or Sino Biological 10164-H08H); also called recombinant IGF1R; ECD of IGF1R
The test is described as follows: ELISA, hIGF1R coated, minibody titrated 0.000256-20 nM, Abs. at 450 nm.
Protocol: Human IGF1R was diluted with 1 ug/ml in PBS buffer, added at an amount of 100 ul per well in 96-well ELISA plate (Nunc-Immuno Plates, NUNC, Rochester, NY), coated by reacting at 4° C. for 16 hours, and then the supernatant was removed. PBS buffer containing 3% BSA (bovine serum albumin) was added to 200 ul per well and reacted for 2 hours to block non-specific binding.
After treatment, it was wash 4 times with PBS buffer containing 0.05% Tween20, and was reacted at room temperature for an hour by adding 100 ul of the anti-human HRP recognizing human Fe of the minibody diluted in blocking buffer at 1:5000 per each well. After washing 4 times with 300 ul of PBS-T (Tween20 0.05%), the color development was performed using TMB (Tetramethylbenzidine, Sigma, T0440).

Test [11] concerns the target T7, human IGF1R extracellular domain, …. The test is described as follows: ELISA on IGF1R protein, first experiment.
The target is the same in test [12]. The test is described as follows: ELISA on IGF1R protein, third experiment.
Test [13] shares this target. The test can be described thus: ELISA on IGF1R protein, second experiment.
Test [14] shares this target. The test is described as follows: SPR (Biacore T200), His-tagged human IGF1R ECD captured by anti-His antibody on CM4 chip, bivalent model; F06 IgG.
Protocol: The anti-his antibody against the His tag bound to the human IGF1R ECD as an antigen was diluted to 20 μg/ml in acetate pH4.0 buffer, and then immobilized in the reference/analytic channel of the CM4 chip to 10,000 RU as a target RU according to the amine coupling method. During capture, PBS was used as a running buffer, and the flow rate was maintained at 30 μL/min. During association/dissociation, the flow rate was 40 μL/min, and PBS was used as the running buffer. The association/dissociation was 5 minutes and 20 minutes, respectively.

Protocol for Aβ42 (Monomer): as §2
Description for human beta-synuclein: (§3) For the positive control, RP-bound goat anti-rabbit was used as a detection antibody.
Description for human gamma-synuclein: as §3

B1: 11F11 (mouse monoclonal anti-alpha-synuclein antibody) (antibody, mouse IgG2b, V domains shown)
VH: EVQLQESGGGLVQPGGSLRLSCATSGFTFSDFYMEWVRQPPGKRLEWIAASRNKANDYTTEYSASVKGRFIVSRDTSQSILYLQMNALRAEDTAIYYCARDAHGKPFAYWGQGTLVTVSA
VL: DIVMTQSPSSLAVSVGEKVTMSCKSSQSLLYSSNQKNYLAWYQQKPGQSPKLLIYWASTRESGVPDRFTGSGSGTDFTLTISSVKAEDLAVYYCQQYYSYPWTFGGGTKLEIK
The term EC50 denotes the concentration at which the effect is half-maximal. Low readings indicate higher potency in that assay, high ones lower potency in that assay. With B1, the Kd was 2.87 nM in test [1] and 0.16 nM in [3]. Besides, the EC50 in test [2] was 0.327 µg/mL and 2.18 nM.

B2: hu11F11(ver.1) (antibody, human IgG1, kappa, V domains shown)
VH: B1 VH with Q5V, I71T, V72I, T76D, Q78K, I80S, A87S, L115T, A120S
VL: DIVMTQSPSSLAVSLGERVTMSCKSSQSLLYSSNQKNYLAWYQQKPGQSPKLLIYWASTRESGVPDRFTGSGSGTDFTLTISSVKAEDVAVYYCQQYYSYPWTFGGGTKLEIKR
notes: humanized IgG1; also called Hu11F11-VH-v1 + Hu11F11-VLv3 4c
The term koff denotes a measure of how fast the partners let go of each other. A lower koff goes with slow dissociation. What is called kon is a measure of how fast the partners come together. A higher kon goes with fast association. In [4], B2 displayed a koff of 5.36e-05 s⁻¹ and an on-rate constant (kon) of 845000 M⁻¹ s⁻¹. Also, in test [5], a half-maximal effect (EC50) was put at 11.5 nM.

B3: hu11F11(ver.3) (antibody, human IgG1, kappa, V domains shown)
VH: B1 VH with Q5V, I71T, V72I, Q78K, I80S, A87S, L115T, A120S
VL: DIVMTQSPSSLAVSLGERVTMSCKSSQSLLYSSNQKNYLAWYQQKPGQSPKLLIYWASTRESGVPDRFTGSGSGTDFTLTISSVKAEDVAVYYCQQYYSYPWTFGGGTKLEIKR
notes: humanized IgG1; also called Hu11F11-VH-v3 + Hu11F11-VLv3 4c
In the case of B3, the Kd in [6] was determined as 0.0316 nM. In [4], this molecule yielded an association rate constant (kon) of 1.07e+06 M⁻¹ s⁻¹. In [5], this molecule displayed an EC50 of 13.4 nM.

B4: hu11F11(ver.4) (antibody, human IgG1, kappa, V domains shown)
VH: B1 VH with Q5V, I71T, Q78K, I80S, A87S, L115T, A120S
VL: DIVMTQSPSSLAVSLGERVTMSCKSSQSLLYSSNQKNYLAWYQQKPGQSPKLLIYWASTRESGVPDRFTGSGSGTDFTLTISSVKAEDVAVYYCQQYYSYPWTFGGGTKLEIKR
notes: humanized IgG1; also called Hu11F11-VH-v4 + Hu11F11-VLv3 4c
B4 registered a Kd in test [6] of 0.0204 nM. In [4], this molecule returned a koff of 0.000291 s⁻¹ and a kon of 1.07e+06 M⁻¹ s⁻¹. The response in test [5] was half-maximal at 12.9 nM (EC50).

B5: chimeric 3A9 antibody (antibody, V domains shown)
VH: EVQLQESGGGLVKPGGSLKLSCAASGFTFSSYAMSWVRQTPEKRLEWVATISNGGGYTYYPDSVKGRFTISRDNAKNTLYLQMSSLRSEDTAMYYCARHITTVRPTKYFDYWGQGTTLTVSS
VL: DIVMTQSPKFMSTSVGDRVSITCKASQNVGTTVAWYQQKPGQSPKLLIYSASNRYTGVPDRFTGSGSGTDFTLTISNMQSEDLADYFCQQYSNYPLTFGAGTKLELR
notes: also called Ch 3A9; ch3A9
B5: the binding result (in the test with human gamma-synuclein; with Tau protein aggregates; in test [9]; with Aβ42 (Monomer); in the test with human beta-synuclein) was “no binding” throughout. Moreover, the values for the dissociation rate constant (koff) in test [7] and in test [8] were 7.42e-05 s⁻¹ and 0.00186 s⁻¹, respectively. In addition, in [7], the association rate constant (kon) came out at 631000 M⁻¹ s⁻¹.

B6: 3A9 (mouse monoclonal anti-alpha-synuclein antibody) (antibody, mouse IgG2b, V domains shown)
VH: B5 VH
VL: B5 VL
In the case of B6, the values for the Kd in test [1] and in test [3] were 1.32 nM and 0.13 nM, respectively. The EC50 in test [2] is 0.319 µg/mL and 2.13 nM.

B7: chimeric 9B11 antibody (antibody, V domains shown)
VH: EVQLQESGGGLVQPKGSLKLSCAASGFTFNTYAMNWVRQAPGKGLEWVARIRSKSNNYATYYADSVKDRFTISRDDSQSMLYLQMNNLKTEDTAMYYCVRQDFDYWGQGTTLTVSS
VL: DIVMTQSPLSLPVSLGDQASISCRSSQSLVHSNGNTYLHWYLQKPGQSPKLLIYKVSNRFSGVPDRFSGSGSGTDFTLKISRVEAEDLGVYFCSQSTHVPLTFGAGTKLEQK
notes: also called ch9B11; 9B11 (chimeric)
For B7, the binding result (with human gamma-synuclein; in the test with Tau protein aggregates; in test [9]; in the test with Aβ42 (Monomer); with human beta-synuclein) was “no binding” throughout. Moreover, the off-rate (koff) in [7] stood at 4.39e-05 s⁻¹; in test [8], 0.000571 s⁻¹. In addition, the on-rate (kon) in test [7] worked out at 629000 M⁻¹ s⁻¹; in test [8], 2210 M⁻¹ s⁻¹.

B8: 9B11 (mouse monoclonal anti-alpha-synuclein antibody) (antibody, V domains shown)
VH: B7 VH
VL: B7 VL
B8: the values for the Kd in test [1] and in test [3] were 0.904 nM and 0.018 nM, respectively. Moreover, in [2], the concentration giving a half-maximal response (EC50) is 0.185 µg/mL and 1.23 nM.

B9: 996 minibody (Fc fusion, not shown: a dimerising Fc or GST)
chain: QSVLTQPPSASGTPGQRVTISCTGSSSNIGSNAVNWYQQLPGTAPKLLIYSNSHRPSGVPDRFSGSKSGTSASLAISGLRSEDEADYYCATWDYSLSGYVFGCGTKLTVLGGGGSGGGGSGGGGSGGGGSEVQLLESGGGLVQTGGSLRLSCAASGFTFSSYDMSWVRQAPGKCLEWVSGIYHDGSSTYYADSVQGRFTISRDNSKNTLYLQMNSLRAEDTAVYYCARVSGTLSEPYAFFFNAMDVWGQGTLVTVSS
For orientation: EC50 (read off the curve) means the concentration at which the effect is half-maximal. B9: the concentration giving a half-maximal response (EC50 (read off the curve)) in test [10] is roughly 0.3 nM.

B10: 1564 clone (anti-IGF1R antibody, format not stated) (antibody, V domains shown)
VH: EVQLLESGGGLVQPGGSLRLSCAASGFTFSSYDMSWVRQAPGKGLEWVSAISYDNGNTYYADSVKGRFTISRDNSKNTLYLQMNSLRAEDTAVYYCAKGVLTTLMNWFDYWGQGTLVTVSS
VL: QSVLTQPPSASGTPGQRVTISCTGSSSNIGSNDVSWYQQLPGTAPKLLIYANSNRPSGVPDRFSGSKSGTSASLAISGLRSEDEADYYCGAWDDSLNGYVFGGGTKLTVL
B10: the half-maximal effective concentration (EC50) came out at 2.15 nM in [11], 6.87 nM in [12] and 2.66 nM in [13]. Further, the Saturation value in test [11] is 1.1; in test [13] it was 0.977.

B11: 1564-VH(N54Q) (antibody, V domains shown)
VH: B10 VH with N55Q
VL: B10 VL
B11: in [13], a half-maximal effect (EC50) was put at 2.2 nM and the Saturation value was determined as 0.885.

B12: 1564-VH(N54D) (antibody, V domains shown)
VH: B10 VH with N55D
VL: B10 VL
For B12, in test [13], the 50% effective concentration (EC50) was 2.89 nM and the Saturation value amounted to 0.933.

B13: 1564-VL(N95aK) (antibody, V domains shown)
VH: B10 VH
VL: B10 VL with P60S, N97K
In test [11], B13 returned a 50% effective concentration (EC50) of 2.07 nM and a Saturation value of 1.18.

B14: 1564-VL(N95aD) (antibody, V domains shown)
VH: B10 VH
VL: B10 VL with P60S, N97D
In [13], B14 had an EC50 of 2.07 nM and a Saturation value of 0.896.

B15: 1564-VL(N95aH) (antibody, V domains shown)
VH: B10 VH
VL: B10 VL with P60S, N97H
Consider B15, for which, in test [11], the EC50 was determined as 2.63 nM and the Saturation value was 1.08.

B16: 1564-VL(N51D) (antibody, V domains shown)
VH: B10 VH
VL: B10 VL with N52D, P60S
In test [12], B16 registered an EC50 of 7.35 nM. That is a single-digit nanomolar value.

B17: F06 IgG antibody (antibody, V domains shown)
VH: B10 VH
VL: B10 VL with A91T, D93A, D94G
Regarding B17, the Kd in [14] was found to be 478 nM.
